Measured values: US20190194323A1 (ALLAKOS, published 2019)
Numbering of substitutions follows the chain as printed.

B1: 5G10 (antibody, V domains shown)
VH: EVKLEESGGGLVQPGGSMKVSCVASGFTFSNYWMNWVRQSPEKGLEWVAQIRLKSDNYATHYAESVKGRFTISRDDSKSSVYLQMNNLRAEDTGIYYCTEGDYDIFAYWGQGTLVTVSA
VL: DIQMTQTTSSLSASLGDRVTISCSASQGITNYLNWYQQKPDGTVKLLIYYTSILHSGVPSRFSGSGSGTDYSLTISNLEPEDIATYYCQQYSKPPYTFGGGTKLEIK
B2: monoclonal antibody 8A2 (antibody, V domains shown)
VH: QVQLKESGPGLVAPSQSLSITCTVSGFSLTTYGVDWVRQFPGKGLEWLGVIWGGGNTNYNSALMSRLSISKDTSKSQVFLKMNSLQTDDTAMYYCAKHKGTSHAMEYWGQGTSVTVSS
VL: QIVLTQSPAIMSASPGEKVTMTCSASSRVIFMYWYQQKPGSSPRLLIYDTSNLASGVPVRFSGGGSGTSYSLTISRMEAEDAATYYCQQWSSYPPTFGAGTKLELK
B3: 2G12 (antibody, V domains shown)
VH: QVQLQQPGAELVKPGASVKLSCKASGYTFTSYWMQWVKQRPGQGLEWIGEIDPSVSYTEYNQKFKGKATLTVDTSSSTAYMQLSSLTSEDSAVYFCARWSKDYYGMDYWGQGTSVTVSS
VL: DIVLTQSHKFMSTSVGDRVTITCKASQDVSTAVAWYQQKPGQSPKLLIYWTSTRHTGVPDRFTGSGSGTDHTLTISSVQAEDLALYYCHQQYSTPPTFGGGTKLEIK
B4: 13D2 (antibody, V domains shown)
VH: DVQLQESGPGMVKPSQSLSLTCTVTGYSITSDYDWHWIRHFPGNKLEWMGYISYSGSTKYNPSLKSRISITHDTSKNHFFLKLNSVTAEDTATYYCARENDFPGFWYFDVWGTGTTVTVSS
VL: DIVMSQSPSSQVVSVGEKVTVTCTSSQSLLYGTNQKNYLAWYQQKPGQSPKLLIYWASIRESGVPDRFTGSGSGTDFTLTISSVKAEDLAVYYCQQYYSYPLTFGAGTKLELK
B5: humanized 16H11-derived Fab, VH AK449-6 / VL AK418-2 (Fab, V domains shown)
VH: QVQLVQSGAEVKKPGSSVKVSCKGSGYDFSNFWMNWVRQAPGQGLEWMGGIYPGDGEIKYNQKFQGRVTITADESTSTAYMELSSLRSEDTAVYYCARDDYLRAMDIWGQGTMVTVSS
VL: DIQMTQSPSSLSASVGDRVTITCRASGNIHNYLAWYQQKPGKAPKFLLYSAKRLESGVPSRFSGSGSGTDYTLTISSLQPEDFATYYCQHFWSSPYTFGGGTKVEIK
notes: Measured as monovalent Fab; also called No. 30; VH449-6 and VL418-2
B6: humanized 16H11-derived Fab, VH AK484-7 / VL AK448-3 (Fab, V domains shown)
VH: B5 VH with G24A, F32Y, G50Q, I107Y, M113L
VL: B5 VL with G27Q, G100Q, V104L
notes: Measured as monovalent Fab; also called No. 44; VH484-7 and VL448-3
B7: humanized 16H11-derived Fab, VH AK449-6 / VL AK448-3 (Fab, V domains shown)
VH: B5 VH
VL: B5 VL with G27Q, G100Q, V104L
notes: Measured as monovalent Fab; also called No. 31
B8: humanized 16H11-derived Fab, VH AK463-2 / VL AK419-2 (Fab, V domains shown)
VH: B5 VH with G24A, G50Q, I107Y, M113L
VL: B5 VL with G27Q
notes: Measured as monovalent Fab; also called No. 38
B9: humanized 16H11-derived Fab, VH AK463-2 / VL AK448-3 (Fab, V domains shown)
VH: B5 VH with G24A, G50Q, I107Y, M113L
VL: B5 VL with G27Q, G100Q, V104L
notes: Measured as monovalent Fab; also called No. 36; Vh463-2 and VL448-3
B10: humanized 16H11-derived Fab, VH AK484-6 / VL AK418-2 (Fab, V domains shown)
VH: B5 VH with G24A, F32Y, G50Q
VL: B5 VL
notes: Measured as monovalent Fab; also called No. 42; VH484-6 and VL418-2
B11: humanized 16H11-derived Fab, VH AK484-6 / VL AK448-3 (Fab, V domains shown)
VH: B5 VH with G24A, F32Y, G50Q
VL: B5 VL with G27Q, G100Q, V104L
notes: Measured as monovalent Fab; also called No. 43; VH484-6 and VL448-3
B12: humanized 16H11-derived Fab, VH AK465-17 / VL AK419-2 (Fab, V domains shown)
VH: B5 VH with G24A, G50Q, N61A
VL: B5 VL with G27Q
notes: Measured as monovalent Fab; also called No. 40
B13: humanized 16H11-derived Fab, VH AK465-17 / VL AK448-3 (Fab, V domains shown)
VH: B5 VH with G24A, G50Q, N61A
VL: B5 VL with G27Q, G100Q, V104L
notes: Measured as monovalent Fab; also called No. 41
B14: humanized 16H11-derived Fab, VH AK485-4 / VL AK448-3 (Fab, V domains shown)
VH: B5 VH with G24A, W33A, G50Q, I107Y, M113L
VL: B5 VL with G27Q, G100Q, V104L
notes: Measured as monovalent Fab; also called No. 47
B15: humanized 16H11-derived Fab, VH AK485-5 / VL AK448-3 (Fab, V domains shown)
VH: B5 VH with G24A, W33A, G50Q
VL: B5 VL with G27Q, G100Q, V104L
notes: Measured as monovalent Fab; also called No. 46
B16: humanized 16H11-derived Fab, VH AK465-17 / VL AK418-2 (Fab, V domains shown)
VH: B5 VH with G24A, G50Q, N61A
VL: B5 VL
notes: Measured as monovalent Fab; also called No. 39; FH465-17 and VL418-2
B17: humanized 16H11-derived Fab, VH AK463-2 / VL AK418-2 (Fab, V domains shown)
VH: B5 VH with G24A, G50Q, I107Y, M113L
VL: B5 VL
notes: Measured as monovalent Fab; also called No. 35; VH463-2 and VL418-2
B18: humanized 16H11-derived Fab, VH AK485-5 / VL AK418-2 (Fab, V domains shown)
VH: B5 VH with G24A, W33A, G50Q
VL: B5 VL
notes: Measured as monovalent Fab; also called No. 45
B19: monoclonal antibody 16H11 (antibody, V domains shown)
VH: QVQLHQSGAELVKPGASVKISCKGSGYDFSNFWMNWVKQRPGKGLEWIGQIYPGDGEIKYNGKFKGKATLTADESSSTAYIHLSSLTSEDSAVYFCARDDYLRAMDYWGQGTSVTVSS
VL: DIQMTQSPASLSASVGETVTITCRASGNIHNYLAWFQQKQGKSPHFLVYSAKALADGVPSRFSGSGSGTQYSLKINSLQPEDFGTYYCQHFWSSPYTFGGGTKLEIK
notes: Parental antibody; The Methods capture antibodies on anti-mouse sensors
B20: anti-Siglec-7 antibody 4B12 (antibody, V domains shown)
VH: EVQLQQSGPELVKPGASVKIPCKASGYTFTDYNMDWVKQSHEKSLEWIGDIDPHNGVTLYNQKFKDKATLTIDKSSNTAYMELRSLTSEDSAVYYCALTGSTYWGQGTLVTVSA
VL: DIVMTQSQKFMSTSVGDRVSVTCKASQNVGTNVAWYQQKPGQSPKAVIYSASYRNSGVPDRFTGSGSGTDFTLTISNVQSEDLTEYFCQQYNNYPYTFGGGTKLEIK
notes: Used as an AF647 conjugate for detection in the internalization assay; also called 4B12-AF647
B21: 10E11 (antibody, V domains shown)
VH: EVQLQQSGPELVKPGDSVKISCKASGYSSTGYFMNWVMQSHGKSLEWIGRIIPYNGDTFYNQKFKDKATLTVDKSSNTAHLELRSLTSEDSVVYYCAGPRIGGDYDGGSWLAYWGQGTLVTVSA
VL: DIVMTQSQKFMSTTVGDRVSITCKASQNVGTAVAWYQQKPGHSPKLLIYSASNRYTGVPDRFTGSGYGTDFTLTISNMQSEDLADYFCQQYNSYPLTFGAGTKLELK
B22: 9D4 (antibody)
heavy chain variable region: QVTLKESGPGILQPSQTLSLTCSFSGFSLSTFGMGVGWIRQPSGKGLEWLAHIWWDDDKYYHPALKSRLTISKDTSNNQVFLKIANVDTAETATFYCARVERGYPLDHWGQGTTLRVSS
light chain variable region: DIVLTQSPASLAVSLGQRATISCRASQSVSSSSYSYMHWYQQKPGQPPKLLIKYASNLKSGVPARFSGSGSGTDFTLTIHPVEEEDTATYYCQHSWEIPPTFGGGTKLEIK
B23: 5D1 (antibody)
heavy chain variable region: QVQLQQPGAELVKPGASVKMSCKASGYTFTSSWITWVKDRPGQGLEWIGDIYPGNGNTNYNEKFKSKATLTVDTSSNTVYMQLSSLTSEDSAVHYCARDGRGYFDYWGPGTTLTVSS
light chain variable region: DIQMTQTTSSLSASLGDRVTIICRASQDISNFLNWYQQKPDGTVKLLMYDTSILQSGVPSRFSGRGSGADYSLTINNLEQEDLATYFCQQGKTLPYTFGGGTKLEIK

Legend:
[1] = biological target: Siglec-7 on primary human cells (NK cells, CD8+ tumor-infiltrating T cells) (human) (UniProt Q9Y286)
Siglec-7 on primary human cells (NK cells, CD8+ tumor-infiltrating T cells) (human), sequence (Q9Y286 19-467 limits assumed): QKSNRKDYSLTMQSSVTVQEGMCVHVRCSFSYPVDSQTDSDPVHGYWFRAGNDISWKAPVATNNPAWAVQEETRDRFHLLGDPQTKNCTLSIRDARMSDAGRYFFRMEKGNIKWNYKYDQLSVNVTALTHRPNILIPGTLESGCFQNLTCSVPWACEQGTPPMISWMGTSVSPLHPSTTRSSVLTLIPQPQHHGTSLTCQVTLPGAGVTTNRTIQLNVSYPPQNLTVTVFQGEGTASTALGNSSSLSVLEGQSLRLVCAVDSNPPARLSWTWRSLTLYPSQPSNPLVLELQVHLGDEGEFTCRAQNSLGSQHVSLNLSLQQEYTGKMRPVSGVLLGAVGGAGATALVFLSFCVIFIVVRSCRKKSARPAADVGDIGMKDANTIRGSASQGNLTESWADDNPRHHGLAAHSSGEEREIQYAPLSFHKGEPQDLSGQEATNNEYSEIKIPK

Siglec-7-ECD [2] = biological target: T1, Siglec-7-ECD (human, UniProt Q9Y286 19-353); experiment: bio-layer interferometry (ForteBio): antibody captured on the sensor, Siglec-7-ECD as analyte, 1:1 global fit
T1 construct: also called p75; AIRM
T1 sequence (Q9Y286 19-353 limits assumed): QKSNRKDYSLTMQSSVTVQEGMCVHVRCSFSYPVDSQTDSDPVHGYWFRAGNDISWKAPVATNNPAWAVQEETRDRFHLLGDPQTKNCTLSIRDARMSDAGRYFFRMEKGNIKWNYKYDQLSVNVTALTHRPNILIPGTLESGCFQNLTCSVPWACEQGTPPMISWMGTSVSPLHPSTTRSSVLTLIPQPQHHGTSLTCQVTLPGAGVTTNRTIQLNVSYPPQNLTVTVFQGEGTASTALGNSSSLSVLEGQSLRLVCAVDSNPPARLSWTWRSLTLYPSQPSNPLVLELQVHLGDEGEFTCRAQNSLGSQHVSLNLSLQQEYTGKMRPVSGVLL
Protocol: A panel of antibodies was evaluated for binding to Siglec-7. The results identified anti-Siglec-7 antibodies that have improved KD values compared to commercially available anti-Siglec-7 antibodies (FIG. 7).
Antibody binding analysis was carried out by bio-layer interferometry (ForteBio). […] Antibodies were captured on anti-mouse kinetic sensors at 0.5 ug/mL; Siglec-7-ECD was used as analyte and diluted in assay buffer from 50 nM to 1.56 nM with 2× dilutions. Two-minute associations were conducted, followed by 10-minute dissociations. Results were determined relative to a control empty reference AHC sensor, and analyzed using ForteBio analysis software with 1:1 global fit parameters.

Siglec-7-ECD-Fc = biological target: T2, Siglec-7-ECD-Fc (human, UniProt Q9Y286 19-353); experiment: ligand blocking on cells, flow cytometry: antibody dilutions pre-mixed with 10 nM Siglec-7-ECD-Fc, then binding of Siglec-7-ECD-Fc to Siglec-7 ligands on A375 melanoma cells
T2 construct: also called recombinant Siglec-7-Fc fusion protein; Siglec-7-Fc; not shown: human Fc (huFc)
T2 sequence (Q9Y286 19-353): as the sequence (Q9Y286 19-353 limits assumed) above
Protocol: Recombinant Siglec-7-Fc was added to A375 cells in the presence of anti-Siglec-7 antibodies at increasing concentrations and binding of the complex was detected on the cell surface.
Human melanoma cell line A375, which expresses high level of ligands for Siglec-7, was used to determine the blocking activity of anti-Siglec-7 antibodies in a cell based assay. Two-fold serial dilutions of anti-Siglec-7 antibodies (40 nM to 40 pM) were combined with 10 nM Siglec-7-ECD-Fc in FACS buffer (PBS/2% BSA) and incubated on ice for 30 minutes. 2.5×10e4 A375 cells per well were added to round bottom 96-well tissue culture plates in FACS buffer, plates were centrifuged at 400 g for 2 min, supernatant was removed and cells were re-suspended in 100 ul of the antibody-Siglec-7 complexes. After a 1 hour incubation on ice, cells were washed twice and incubated for 30 minutes with goat anti-human F(ab′)₂ fragment conjugated to AF647 (Jackson IR labs) at 1 ug/ml in FACS buffer. After two more washes, cells were fixed in PBS/2% PFA and acquired on a Novocyte flow cytometer (ACEA biosciences). IC₅₀ values for blocking were determined based on plotting mean fluorescence in the APC channel and analysis using Prism Graphpad software.

[3] = biological target: Siglec-7 on primary human cells (NK cells, CD8+ tumor-infiltrating T cells) (human, UniProt Q9Y286 19-467); experiment: cell-based or functional assay
Siglec-7 on primary human cells (NK cells, CD8+ tumor-infiltrating T cells), sequence (Q9Y286 19-467 limits assumed): as the sequence (Q9Y286 19-467 limits assumed) above

Siglec-7-ECD [4] = biological target: T1, Siglec-7-ECD; experiment: monovalent Fab; bio-layer interferometry (ForteBio) per Methods

Molecule	Kd (Siglec-7-ECD [2])	IC50 of Siglec-7 internalization on NK cells (24 h, PBMC; remaining surface Siglec-7 stained with 4B12-AF647) [3]	Kd (Siglec-7-ECD [4])	further results
QA79 (antibody)	0.706 nM	–	–	IC50 of Siglec-7 internalization on NK cells (24 h, PBMC; remaining surface Siglec-7 stained with 4B12-AF647) [1]: 0.326 nM; IC50 (Siglec-7-ECD-Fc): 7.49 nM
B1	0.001 nM	0.206 nM	–	IC50 (Siglec-7-ECD-Fc): 3.07 nM
B2	0.001 nM	0.0149 nM	–	–
B3	0.205 nM	0.0673 nM	–	IC50 (Siglec-7-ECD-Fc): 19.8 nM
B4	–	0.0175 nM	–	–
B5	–	–	< 0.1 nM	–
B6	–	–	< 0.075 nM	–
B7	–	–	0.05 to 0.1 nM	–
B8	–	–	> 0.5 nM	–
B9	–	–	< 0.075 nM	–
B10	–	–	< 0.1 nM	–
B11	–	–	< 0.075 nM	–
B12	–	–	0.15 to 0.25 nM	–
B13	–	–	0.1 to 0.15 nM	–
B14	–	–	> 0.5 nM	–
B15	–	–	> 0.5 nM	–
B16	–	–	< 0.075 nM	–
B17	–	–	< 0.075 nM	–
B18	–	–	> 0.5 nM	–
B19	0.035 nM	0.0106 nM	–	IC50 (Siglec-7-ECD-Fc): 7.42 nM
B20	0.26 nM	–	–	–
B21	0.522 nM	0.0493 nM	–	IC50 (Siglec-7-ECD-Fc): 6.23 nM
B22	0.76 nM	0.0875 nM	–	IC50 (Siglec-7-ECD-Fc): 1.41 nM
B23	0.001 nM	0.0206 nM	–	–
